Data: publication PMC6031666

Test system: His51
Assay: NMR
Conditions: 298 K; 100 mM NaCl, 5 mM CaCl2; 20 mM deuterated MES (pH 5.5, 6.0, 6.5, 7.2, 8.5) or 20 mM deuterated Tris (pH 8.5), 0.02% NaN3; Inhibitor-bound (Bz-Nle-Lys-Arg-Arg-B(OH)2, a tetrahedral transition-state mimic), NS2B-bound, folded. Two complex forms are in equilibrium.

NS3 serine protease domain (NS3pro) in complex with NS2B cofactor segment (Dengue virus type 2 (DENV2))
pKa: remain fully protonated over the investigated pH range (5.5–8.5)
